B1: FAM83G(111–126) peptide displayed on M13 phage [human] / GST-tagged merlin FERM domain [human] (parent complex)
chain 1: AEPLPSLEYWPQKSDR
chain 2: FTVRIVTMDAEMEFNCEMKWKGKDLFDLVCRTLGLRETWFFGLQYTIKDTVAWLKMDKKVLDHDVSKEEPVTFHFLAKFYPENAEEELVQEITQHLFFLQVKKQILDEKIYCPPEASVLLASYAVQAKYGDYDPSVHKRGFLAQEELLPKRVINLYQMTPEMWEERITAWYAEHRGRARDEAEMEYLKIAQDLEMYGVNYFAIRNKKGTELLLGVDALGLHIYDPENRLTPKISFPWNEIRNISYSDKEFTIKPLDKKIDVFKFNSSKLRVNKLILQLCIGNHDLFMRRRK
B2: NOP53(192–207) peptide displayed on M13 phage [human] / GST-tagged merlin FERM domain [human] (parent complex)
chain 1: FYDLWASDNPLDRPLV
chain 2: B1 chain 2

In the first test the parent is B1. The test can be described thus: clonal phage ELISA; ratio of A450 on immobilized GST-merlin to A450 on GST, normalized to 100% of WT peptide; no-peptide phage control est. 29%; read off a plot. (ELISA stands for enzyme-linked immunosorbent assay.)
Take chain 1 AEPLPSLEKWPQKSDR [chain 1 Y9K]: the percent of parent was roughly 21 % binding.

As for chain 1 AEPLPSLEDWPQKSDR [chain 1 Y9D], the percent of parent is roughly 13 % binding.

With chain 1 AEPKPSLEYWPQKSDR [chain 1 L4K], the percent of parent is roughly 86 % binding.

On to chain 1 AEPLPSLEYWPQASDR [chain 1 K13A], for which the percent of parent was roughly 91 % binding.

For the variant chain 1 AEPLPSLEYWPQDSDR [chain 1 K13D], the percent of parent is roughly 81 % binding.

Regarding chain 1 AEPLPSLEYWKQKSDR [chain 1 P11K], the percent of parent is roughly 19 % binding.

Take chain 1 AEPLPSLAYWPQKSDR [chain 1 E8A]: the percent of parent was roughly 17 % binding.

chain 1 AEPLPSLEYWPAKSDR [chain 1 Q12A]: the percent of parent was roughly 76 % binding.

Take chain 1 AEPLPELEYWPQKSDR [chain 1 S6E]: the percent of parent was roughly 88 % binding.

Consider chain 1 AEPLPSLEYWPQKSAR [chain 1 D15A], for which the percent of parent was roughly 110 % binding.

In the case of chain 1 AEPLPSKEYWPQKSDR [chain 1 L7K], the percent of parent was roughly 84 % binding.

As for chain 1 AEPLKSLEYWPQKSDR [chain 1 P5K], the percent of parent is roughly 68 % binding.

For the variant chain 1 AEPLPSLEYWPQKSDA [chain 1 R16A], the percent of parent was roughly 99 % binding.

Turning to chain 1 AEPLPSLEYKPQKSDR [chain 1 W10K], the percent of parent was roughly 23 % binding.

For the variant chain 1 AEPLPSLEYWPQKADR [chain 1 S14A], the percent of parent was roughly 98 % binding.

Variants of B2 are the subject of a further test. The test is described as follows: clonal phage ELISA; ratio of A450 on immobilized GST-merlin to A450 on GST, normalized to 100% of WT peptide; no-peptide phage control est. 32%; read off a plot.
On to chain 1 FKDLWASDNPLDRPLV [chain 1 Y2K], for which the percent of parent is roughly 16 % binding.

chain 1 FYDLWASDNPLARPLV [chain 1 D12A]: the percent of parent is roughly 24 % binding.

On to chain 1 FYDLWASDNPLDRKLV [chain 1 P14K], for which the percent of parent was roughly 50 % binding.

In the case of chain 1 FYDLWASDNKLDRPLV [chain 1 P10K], the percent of parent is roughly 26 % binding.

Regarding chain 1 FYDKWASDNPLDRPLV [chain 1 L4K], the percent of parent was roughly 29 % binding.

As to chain 1 KYDLWASDNPLDRPLV [chain 1 F1K], the percent of parent is roughly 29 % binding.

For chain 1 FYDLWKSDNPLDRPLV [chain 1 A6K], the percent of parent is roughly 59 % binding.

Regarding chain 1 FYDLWASANPLDRPLV [chain 1 D8A], the percent of parent was roughly 110 % binding.

Regarding chain 1 FYDLWASKNPLDRPLV [chain 1 D8K], the percent of parent is roughly 94 % binding.

With chain 1 FYDLWASDNPLDAPLV [chain 1 R13A], the percent of parent is roughly 97 % binding.

On to chain 1 FYDLKASDNPLDRPLV [chain 1 W5K], for which the percent of parent was roughly 31 % binding.

For the variant chain 1 FYDLWASDNPKDRPLV [chain 1 L11K], the percent of parent is roughly 14 % binding.

Turning to chain 1 FYDLWASDAPLDRPLV [chain 1 N9A], the percent of parent is roughly 93 % binding.

As for chain 1 FYDLWASDNPLDRPKV [chain 1 L15K], the percent of parent is roughly 16 % binding.

chain 1 FYALWASDNPLDRPLV [chain 1 D3A]: the percent of parent is roughly 29 % binding.

Consider chain 1 FYKLWASDNPLDRPLV [chain 1 D3K], for which the percent of parent is roughly 33 % binding.

chain 1 FYDLWAADNPLDRPLV [chain 1 S7A]: the percent of parent is roughly 120 % binding.

chain 1 FYDLWASDNPLDRPLK [chain 1 V16K]: the percent of parent is roughly 61 % binding.

For the origin of these results see paper PMC10249358 (2023).
